Our source for the protein production values is a protein production outcome set (Wang et al. 2014).

This data set can be described thus: label from the status in PepcDB records.
Regarding “VLEVTQKATPNPSLLAAEDQVPCEKCGSLVPVWDMPEHMDYHFALELQKSFLQPHSSNPQVVSAVSHQGKRNPKSPLACTNKRPRPEGMQTLESFFKPLTH”, the protein production result is “failed”.
As to “VLTMPLVTSISQLNEPITLVSYTMGNVNGVPVNNVRKEHFTTWALVLSQYLSEVKASVGTKLEDTVTFVVRYDQPETILNSWRIEWQEKQYDIVKLTPDTAKKQWTTIIGKPVANK”, the protein production entry is reported as “not failed”.
For the sequence “VPRIAEVRDAAEPSSEEQRARHVRMLEAAIELATEKELARVQMHEVAKRAGVAIGTLYRYFPSKTHLFVAVMVDQIDRMGVGFKKSAPPGESPQDAVYNVLVRATRGLLRRPALSTAMIQSTSTANVASVPDAGKVDRAFRQIMLDAAGIEHPTEEDLTALRLLVQLWFGVIQSCLNGRVSIPDAESDIRRACDLLLVNLSHR”, the protein production result is reported as “not failed”.
On to “VQSKNPVLIEGFPGIGLVGNIASQHIIEELNMEYIGSIDSRYFPSIAVLYEGLINMPVRIYENVEHNLIIVISDIPISHSVSYDVSNALVDWAEAINVKEIASIAGIAIMDGGHKVFGAATTPEMLDKIRDKVEIFQMGTISGISGSVMAECLLRGIPAISLLGATRTQNPDPRAASSVIGVLNELYGLSISTDRLIEQAERIEIELQRLAEDVQATERKGEVKKEFPMYG”, for which the protein production entry is on record as “failed”.
On to “VRLRNLVESDRERLLIWRNSPDVSAYMYSDHKIGHEEHDHWFDVARHDPRRRYWIIEADGEPVGLANLADIDLVHRRCAWAYYLASPKVRGLGVGSFVEFQIIEYVFNQLHLNKLWCEVLISNESVWRLHELYGFQREALFRQHVMKQGHEVDVIGLGLLASDWAARR”, for which the protein production entry was “failed”.
As to “VTGDRAGGRSWCLRRVGMSAGWLLLEDGCEVTVGRGFGVTYQLVSKICPLMISRNHCVLKQNPEGQWTIMDNKSLNGVWLNRARLEPLRVYSIHQGDYIQLGVPLENKENAEYEYEVTEEDWETIYPCLSPK”, the protein production result was “not failed”.
As to “VTGSIRSKLSAIDVRQLGTVDYRTAWQLQRELADARVAGGADTLLLLEHPAVYTAGRRTETHERPIDGTPVVDTDRGGKITWHGPGQLVGYPIIGLAEPLDVVNYVRRLEESLIQVCADLGLHAGRVDGRSGVWLPGRPARKVAAIGVRVSRATTLHGFALNCDCDLAAFTAIVPCGISDAAVTSLSAELGRTVTVDEVRATVAAAVCAALDGVLPVGDRVPSHAVPSPL”, the protein production result is listed as “not failed”.
In the case of “VTRAIILAHGYATASSIANVANRLLKSQLFESFDMPLDVTPEAIANQVMAYIESHALASGLIILVDMGSLNAIHRHFNRRLSTPMAIINNVSTGMAMYVGERILQGVMLEDIVREIGDDLAVEHQLYYPQTDKP”, the protein production entry is “failed”.
Regarding “VVEFTTCPDKPGIPVKPSVKGKIHSHSFKITWDPPKDNGGATINKYVVEMAEGSNGNKWEMIYSGATREHLCDRLNPGCFYRLRVYCISDGGQSAVSESLLVQTPAV”, the protein production entry was “not failed”.
Regarding “VVENYETQFVTFVESEMEQDLAHDLNHVFRVVKTAKLLSKIEGAMLEVVLPAAYLHDCFSFPKNHPNKAESSRIAADKALEFLNEIGYPNEYHDAIKHAIIAHSFSAKVQPDTLEAKVVQDADRLDALGAIGIARCIQVSTNLGVGLYDATDPFCGTREPNDRVNTVDHFYTKLFKLPEIMHTASAKVEAEKRMKFMKAYLIQLGMEIEPYS”, the protein production result is “failed”.
Consider “VWWQLHYGPHPDERELDLEGWTTRVLDATRDAVAIRQRAAVDVGVLLSGGVDSSLLVGLLREVGVDDLSTFSIGFEDAGGERGDEFQYSDLIAKHYGTRHHQLRIAEHEIIDQLPAAFRAMSEPMVSHDCIAFYLLSREVAKHCKGVQSGQGADELFAGYHWYPQVDGADDAYAAYREAFFDRSHAEYRDTVQAPWLLETDAAGDFVREHFARPGAPAAVDKALRLDSTVMLVDDPVKRVDNMTMAWGLEARTPFLDYRLVELSARIPARFKLPDGGKQVLKQAARRVIPHEVIDRKKGYFPVPGLKHLEGATLGWVRELLTDPSQDRGLFNPTMLDRLLSNPHGQLTPLRGSKLWQLAALNLWLS”, for which the protein production entry is “failed”.
With “WLDDGKNGGQLGSVEASAVYRNTQVFGEAAYATEPGALSWICGVQSDLAKGITGVVSMRDYAFEYYSPFAGAFAERGDNASNESGLYLGLKAKVRDNLTLAGLYDRFRFPVLDKRYYVYPSSGYEARFYATWKQNRWMTWDAMYQHKEKEEAKKQFDSNIGTSRYIPVPKITNRVQLGLVVECSPGITLKSRAAFKSLRSHFVTGAESEEGWLLYQQINLKRGPFTLKTRLARFDTDSYDVALYAYEDDLPLVYMLNAYYGRGKAWFIVLDFEPVKNFNLTAKYETTWYDDRDVYSSGNDLRNTSSPGSYHVGCMLKF”, the protein production entry is reported as “failed”.
For the sequence “WQGLSSKGDLPQVEITKAFFAKQADEVTLQQADVVLVLQQEDGWLYGERLRDGETGWFPEDFARFI”, the protein production entry is recorded as “not failed”.
As to “WYEDGLVCTLAYQNHRAPLVFIIAGTGASHNTPRMVKLRSALYQGGFHVISLTSPTHMDFVVNASSGLPGDPLDDARDLYRVMEMAYDAVRDTIDVSGFDLAGYSLGAFNAAFVARLDEEEKRFNFSKVLLINPPVSLYESVAALDQLLVENVPQGMEQFDAWFRSVFAEFSHVSREVGPGSLSGDFIYSAYKRFPPNEENLAALIGLSFRMSAANMIFTADVMNGGGYIVPRNARLTATSSLTRYATVSLHTRFTDYFDEWFFPNRRHREPSLTRQALLARMSLRSQEAYLRNADKVGLIHNEDDIILAPGDIDYLQGVFGGRARLFPTGGHMGNMFHPDVVSFMIDFL”, the protein production entry is “failed”.
For “YAVQICKGMDYLGSRQYVHRDLAARNVLVESEHQVKIGDFGLTKAIETDKEYYTVKDDRDSPVFWYAPECLMQSKFYIASDVWSFGVTLHELLTYCDSDSSPMALFLKMIGPTHGQMTVTRLVNTLKEGKRLPCPPNCPDEVYQLMRKCWEFQPSNRTSFQNLIEGFEALLK”, the protein production result was “failed”.
The value for “YDAILLIDYRQRRIIDCNQTAQKLLGYSKEELRLLPPYRLLRAMSARSIKPIFQDILAKRREIHDITLLSQSGEQLLGQLSFNTLQEED” was “failed”; that for “YKELDVHLRRMESGFGFRILGGDEPGQPILIGAVIAMGSADRDGRLHPGDELVYVDGIPVAGKTHRYVIDLMHHAARNGQVNLTVRRKVL” was “not failed”; that for “YLIKFDRIAVPMAEGRSSRRVLHIAFAFASAMGSEITAITVRDQAKDITWTNKITVVTNAYKEGLSQNIKVVPKILTSSDVKSALVEELNRHSYDIVIIASEKRSIITRITSGPVSNYVIKKSNIPTALV” was “failed”.
For “YSIALIIPSLFEKACAHFLPSFQQALNKAGYQLLLGYSDYSIEQEEKLLSTFLESRPAGVVLFGSEHSQRTHQLLEASNTPVLEIAELSSKASYLNIGVDHFEVGKACTRHLIEQGFKNVGFIGARGNHSTLQRQLHGWQSAMIENYLTPDHFLTTHEAPSSQLGAEGLAKLLLRDSSLNALVCSHEEIAIGALFECHRRVLKVPTDIAIICLEGSSMGEHAYPSLTSAEFDYERMGTKAAEKLLHAIKGEPEERPTSMGFKLKRRASTAIN”, the protein production result is reported as “not failed”.
Turning to “YYNIYYPRGKDFYNVGGDYKFFWKRFSLLGETAIDKCGTWATMNMLRYSPKGGTQLIVMNRYYDAKYQSVYARSIGEGSTVQNESGFYIGLETSILKYIKMTCYGDFFYFPWKKYLVSKAGTKGLDGLLQLSYSPTYELEMFIRYRYKKKEKDFTAADKTKQTIPSIQQKCRYQLNYSVKDKLTLKTIADYVRINFRGQSASNGFLVSQSAAYTFHLLPLQLDLSAAWFNTDDYNSRLTIYEKSVLYAFSMPSFYYKGMRVAVNARYELNKHIILQAKYGTTHYFNRDKISSALEEIDGSTKSDLYLQLRLKF”, the protein production entry is given as “failed”.
